From article PMC9628839, “Structure Based Protein Engineering of Aldehyde Dehydrogenase from Azospirillum brasilense to Enhance Enzyme Activity against Unnatural 3-Hydroxypropionaldehyde” (Journal of Microbiology and Biotechnology, 2021)
Positions count from the first letter of the chain named. Names may count otherwise.

B1: AbKGSADH (Azospirillum brasilense; P444F) (protein)
chain: ANVTYTDTQLLIDGEWVDAASGKTIDVVNPATGKPIGRVAHAGIADLDRALAAAQSGFEAWRKVPAHERAATMRKAAALVRERADAIAQLMTQEQGKPLTEARVEVLSAADIIEWFADEGRRVYGRIVPPRNLGAQQTVVKEPVGPVAAFTPWNFPVNQVVRKLSAALATGCSFLVKAPEETPASPAALLRAFVDAGVPAGVIGLVYGDPAEISSYLIPHPVIRKVTFTGSTPVGKQLASLAGLHMKRATMELGGHAPVIVAEDADVALAVKAAGGAKFRNAGQVCISPTRFLVHNSIRDEFTRALVKHAEGLKVGNGLEEGTTLGALANPRRLTAMASVIDNARKVGASIETGGERIGSEGNFFAPTVIANVPLDADVFNNEPFGPVAAIRGFDKLEEAIAEANRLPFGLAGYAFTRSFANVHLLTQRLEVGMLWINQPATFWPEMPFGGVKDSGYGSEGGPEALEPYLVTKSVTVMAV
B2: AbKGSADH (Azospirillum brasilense; R281Y) (protein)
chain: B1 chain with R280Y, F443P
B3: AbKGSADH (Azospirillum brasilense; S109L) (protein)
chain: B1 chain with S108L, F443P
B4: AbKGSADH (Azospirillum brasilense; I288T) (protein)
chain: B1 chain with I287T, F443P
B5: AbKGSADH (Azospirillum brasilense) (protein)
chain: B1 chain with F443P
B6: AbKGSADH (Azospirillum brasilense; R281Q) (protein)
chain: B1 chain with R280Q, F443P
B7: AbKGSADH (Azospirillum brasilense; R281F) (protein)
chain: B1 chain with R280F, F443P
B8: AbKGSADH (Azospirillum brasilense; P444L) (protein)
chain: B1 chain with F443L
B9: AbKGSADH (Azospirillum brasilense; P444S) (protein)
chain: B1 chain with F443S
B10: AbKGSADH (Azospirillum brasilense; S109G) (protein)
chain: B1 chain with S108G, F443P
B11: AbKGSADH (Azospirillum brasilense; P444G) (protein)
chain: B1 chain with F443G

What follows are proteins tested on O=CCCO (assay: purified protein). Settings: 500 μM NAD, 100 mM Tris-HCl pH 8.0, 25 °C, 50 nM enzyme, 0.5-10 mM 3HPA.
Assay type: biochemical, Azospirillum brasilense
In the case of B1, the Km is reported as 4.714 ± 0.547 mM, the kcat is reported as 19.5 ± 1.04 s⁻¹ and the kcat/Km is reported as 4140 M⁻¹ s⁻¹. B2 was tested, and the Km was 2.338 ± 0.372 mM, the kcat was 26.6 ± 1.56 s⁻¹ and the kcat/Km was 11400 M⁻¹ s⁻¹. B3 showed a Km of 4.156 ± 1.377 mM, a kcat of 17 ± 2.5 s⁻¹ and a kcat/Km of 4100 M⁻¹ s⁻¹. B4 gave a Km of 4.593 ± 2.814 mM, a kcat of 6.12 ± 1.69 s⁻¹ and a kcat/Km of 1330 M⁻¹ s⁻¹. B5 was tested, and the Km was 4.581 ± 0.921 mM, the kcat was 21.5 ± 1.99 s⁻¹ and the kcat/Km was 4700 M⁻¹ s⁻¹. Protein B6 has a Km of 5.764 ± 1.462 mM, a kcat of 31.5 ± 3.94 s⁻¹ and a kcat/Km of 5470 M⁻¹ s⁻¹. For B7, the Km was 3.808 ± 0.728 mM, the kcat was 21.9 ± 1.8 s⁻¹ and the kcat/Km was 5760 M⁻¹ s⁻¹. In the case of B8, the Km is reported as 4.204 ± 1.184 mM, the kcat is reported as 18.8 ± 2.36 s⁻¹ and the kcat/Km is reported as 4480 M⁻¹ s⁻¹. B9 was tested, and the Km was 4.690 ± 2.996 mM, the kcat was 17.3 ± 5.1 s⁻¹ and the kcat/Km was 3700 M⁻¹ s⁻¹. Work on B10 yielded a Km of 1.646 ± 0.726 mM, a kcat of 6 ± 0.877 s⁻¹ and a kcat/Km of 3640 M⁻¹ s⁻¹. With B11 the Km was 3.512 ± 2.070 mM, the kcat was 6.59 ± 1.58 s⁻¹ and the kcat/Km was 1880 M⁻¹ s⁻¹.
